Data on 2 molecules can be found in patent US20190233508A1 (Eli Lilly, published 2019).

In the assay the target is T1, Recombinant human IL-21 protein (25-155) (human, UniProt Q9HBE4 32-162).
T1 construct: also called recombinant IL-21; IL-21 recombinant protein
Description: Quanterix Simoa sandwich pairing against recombinant IL-21 reference curve (100 ng/mL-1.0 fg/mL). Here is the method: The antibodies of the present invention, AbM2, Ab2-1, and Ab3-1, are conjugated to beads (Quanterix Cat #101360) at 0.5 mg/mL and are biotinylated according to the manufacturer's protocol at a ratio of 40 to 1 biotin to antibody. Nine combinations of the three antibody pairs are generated and analyzed against a recombinant IL-21 reference curve (100 ng/mL-1.0 fg/mL). The beads are diluted in bead diluent (Quanterix, Cat #100458) and the detection antibodies are diluted in sample/detection buffer (Quanterix, Cat #101359). Two pairs of antibodies are moved into further optimization due to the ability to discriminate IL-21 concentrations in the fg/mL range. The first pair is Ab2-1 and AbM2 which perform well in either orientation. The second pair is Ab3-21 as capture and Ab2-1 as detection.

T1 sequence (Q9HBE4 other isoform, or with tags, fused parts or gaps limits assumed): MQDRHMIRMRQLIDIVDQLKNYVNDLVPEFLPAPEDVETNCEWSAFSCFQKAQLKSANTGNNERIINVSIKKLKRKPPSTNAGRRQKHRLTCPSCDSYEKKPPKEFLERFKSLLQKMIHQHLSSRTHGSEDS

B1: anti-human IL-21 antibody AbM2 (antibody, V domains shown)
VH: QVQLVQSGAEVKKPGASVKVSCKASGYTFTDYWMHWVRQAPGQGLEWMGLIDTSDSYTIYNQKFKGRVTMTRDTSTSTVYMELSSLRSEDTAVYYCARYGPLAMDYWGQGTLVTVSS
VL: DIQMTQSPSSLSASVGDRVTITCRASQDISNYLNWYQQKPGKAPKLLIYYTSRLHSGVPSRFSGSGSGTDFTLTISSLQPEDFATYYCQQFHTLRTFGGGTKVEIKR
notes: In the Simoa assays it is biotinylated (40:1 biotin to antibody)
Turning to B1, the binding result is on record as “binds”.

B2: anti-human IL-21 antibody Ab3-1 (antibody, mouse IgG1, kappa, V domains shown)
VH: QVQLKQSAAELARPGASVKMSCKASGYFFTLYMMHWAKQRPGQNLEWIGYINPSSGYTEYNQKFKDKTTLTADKSSSTAYMQLSSLTSEDSAIYYCLTDFDYWGQGTSLTVSS
VL: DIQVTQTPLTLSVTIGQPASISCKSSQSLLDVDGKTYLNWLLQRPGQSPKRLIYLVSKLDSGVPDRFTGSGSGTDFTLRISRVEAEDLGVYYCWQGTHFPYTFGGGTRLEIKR
notes: also called Ab34; Ab3-21
Take B2: the binding result is “binds”.
